How the values were obtained:
[1] = molecular target: T1, huROR1-His (human ROR1 ECD AA30-406 with C-terminal His tag, made in house) (human, UniProt Q01973 30-406); test: ELISA, huROR1-His coated plate, goat anti-human Fc-HRP, OD450
T1 construct: range 30-406; Expressed in HEK293; also called antigen protein huROR1-His; not shown: C-terminal His tag

[2] = molecular target: T1, huROR1-His (human ROR1 ECD AA30-406 …); test: as above; remark: listed apart in the source
[3] = molecular target: T1, huROR1-His (human ROR1 ECD AA30-406 …); test: Gator (BLI) Advanced Kinetics; antibody 30 nM, huROR1-His 480-7.5 nM
Description: First, Q buffer was prepared with PBS (10 mM pH7.4) (IgG-free, purchased from Jackson ImmunoResearch Lab)+0.02% Tween 20 (purchased from thermo)+0.2% BSA (purchased from source culture), and the stock solution of the test antibody was diluted with the prepared Q buffer to a working solution with a final concentration of 30 nM, the stock solution of the antigen protein huROR1-His was prepared with Q buffer into a working solution with multiple dilutions (480, 240, 120, 60, 30, 15, 7.5 nM), and detection and analysis was then performed with Gator instrument and its accompanying software, selecting the Advanced Kinetics experimental mode is used.

[4] = molecular target: T1, huROR1-His (human ROR1 ECD AA30-406 …); test: Biacore T200 SPR; huROR1-His amine-coupled (~75 RU), antibody 4 and 20 nM as analyte, 1:1 Langmuir fit
Description: Protein coupling: The huROR1-His protein produced in Example 1.2 was diluted to 5.6 μg/mL with NaAc buffer, pH 5.0, the flow rate was set to 10 μL/min, the chip activation time was set to the default value of 420 s with a mixture of 1-ethyl-(3-dimethylaminopropyl)carbodiimide (EDC) and N-hydroxysuccinimide (NHS), and the antigen protein huROR1-His was fixed to a level of about 75 RU using a coupling mode with a preset coupling amount, and the activated groups that were not bound to the test sample were blocked with ethanolamine.
Sample test conditions: PBS buffer (pH 7.4) containing 0.05% Tween-20 was used as the running buffer, and the running buffer was used as the control test sample. A series of antibody concentrations (4 nM, 20 nM) were set. During sample analysis, the flow rate was set to 30 μL/min, the binding time was 120 s, and the dissociation time was 360 s. After the dissociation was completed, 10 mM Gly-HCl (pH 2.0) was used for regeneration for 20 s to completely remove the antibody bound to the ligand.
Parameter fitting: The experiment was run in multiple cycles, with the response signal taking the analysis time as the horizontal axis and the response value as the vertical axis. After double reference subtraction, the obtained data were fitted by BiAcore T200 analysis software. The fitting model adopted was 1:1 Langmuir binding model, and Affinity metrics such as the binding dissociation constant were determined.

[5] = molecular target: T2, human ROR1 on cells (full-length human ROR1 on huROR1-HEK293 cells; human ROR1 on A549 and HT-29 tumor cells) (human, UniProt Q01973 30-937); test: flow cytometry (FACS) on huROR1-HEK293 cells, anti-human IgG-Fc secondary antibody, MFI
T2 construct: whole, on cells; also called hROR1-HEK293T; A549 tumor cells
Description: (§1) In this example, the binding activity of the antibody was evaluated using two types of cells, huROR1-HEK293 cells over-expressing human ROR1 and A549 tumor cells.
(§2) The specific method was as follows: huROR1-HEK293 cells or A549 cells in the logarithmic growth phase were prepared to a single-cell suspension, the density was adjusted to 1×10⁶ cells/mL, then 100 μL/well cells were added to a 96-well round-bottom plate, centrifuged at 4° C., 300 g, and the supernatant was removed. […] After the incubation, the cell mixture was washed three times and then 100 μL of 1:300 diluted secondary antibody Goat F(ab′)₂ Anti-Human IgG-Fc (abcam, ab98596) was added. The mixture was incubated at 4° C. in the dark for 30 min. After washing three times, the cells were detected by flow cytometry (Beckman, CytoFLEX AOO-1-1102).

[6] = molecular target: T2, human ROR1 on cells (full-length human …); test: flow cytometry (FACS) on A549 tumor cells, anti-human IgG-Fc secondary antibody, MFI
Description: as §1, §2

[7] = molecular target: T3, huROR2-His (human ROR2 ECD AA34-403 with C-terminal His tag) (human, UniProt Q01974 34-403); test: ELISA, huROR2-His coated at 2 µg/mL, goat anti-human Fc-HRP, OD450
T3 construct: range 34-403; Expressed in HEK293; also called human ROR2 antigen protein; not shown: C-terminal His tag
Description: (§3) 96-well ELISA plate was coated with 2 μg/mL huROR2-His (30 μL/well) at 4° C. overnight. The next day, the plate was washed three times with PBST and then blocked with 5% skim milk for 2 h. […] After washing with PBST for three times, the secondary antibody Goat-anti-human Fc-HRP (abcam, ab97225) was added and incubated for 1 h. After incubation, the plate was washed with PBST for 6 times and TMB (SurModics, TMBS-1000-0) was added for color development. According to the color development results, 2 M HCl was added to terminate the reaction, and the data were read at OD450 using a microplate reader (Molecular Devices, SpecterMax 190).

[8] = molecular target: T4, MusROR1-His (mouse ROR1 ECD AA30-406 with C-terminal His tag) (mouse, UniProt Q9Z139 30-406); test: ELISA, MusROR1-His coated at 2 µg/mL, goat anti-human Fc-HRP, OD450
T4 construct: range 30-406; Expressed in HEK293; also called mouse ROR1 antigen protein; not shown: C-terminal His tag
Description: as §3, with “MusROR1-His” for “huROR2-His”, “TMBS-1000-01)” for “TMBS-1000-0)”

[9] = molecular target: T1, huROR1-His (human ROR1 ECD AA30-406 …); test: ELISA, huROR1-His coated at 2 µg/mL, goat anti-human Fc-HRP, OD450
Description: as §3, with “huROR1-His” for “huROR2-His”, “TMBS-1000-01)” for “TMBS-1000-0)”

T1 sequence (Q01973 30-406 limits assumed): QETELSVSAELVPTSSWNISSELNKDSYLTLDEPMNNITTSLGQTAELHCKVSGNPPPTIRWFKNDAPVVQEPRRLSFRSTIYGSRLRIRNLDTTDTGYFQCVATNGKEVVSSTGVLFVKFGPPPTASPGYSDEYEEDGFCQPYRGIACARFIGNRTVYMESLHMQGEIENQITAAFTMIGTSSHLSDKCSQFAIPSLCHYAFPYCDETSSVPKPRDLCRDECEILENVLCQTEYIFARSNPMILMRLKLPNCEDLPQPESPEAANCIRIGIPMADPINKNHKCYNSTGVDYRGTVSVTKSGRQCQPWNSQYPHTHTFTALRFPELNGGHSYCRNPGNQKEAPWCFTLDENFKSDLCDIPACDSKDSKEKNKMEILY
T2 sequence (Q01973 30-937): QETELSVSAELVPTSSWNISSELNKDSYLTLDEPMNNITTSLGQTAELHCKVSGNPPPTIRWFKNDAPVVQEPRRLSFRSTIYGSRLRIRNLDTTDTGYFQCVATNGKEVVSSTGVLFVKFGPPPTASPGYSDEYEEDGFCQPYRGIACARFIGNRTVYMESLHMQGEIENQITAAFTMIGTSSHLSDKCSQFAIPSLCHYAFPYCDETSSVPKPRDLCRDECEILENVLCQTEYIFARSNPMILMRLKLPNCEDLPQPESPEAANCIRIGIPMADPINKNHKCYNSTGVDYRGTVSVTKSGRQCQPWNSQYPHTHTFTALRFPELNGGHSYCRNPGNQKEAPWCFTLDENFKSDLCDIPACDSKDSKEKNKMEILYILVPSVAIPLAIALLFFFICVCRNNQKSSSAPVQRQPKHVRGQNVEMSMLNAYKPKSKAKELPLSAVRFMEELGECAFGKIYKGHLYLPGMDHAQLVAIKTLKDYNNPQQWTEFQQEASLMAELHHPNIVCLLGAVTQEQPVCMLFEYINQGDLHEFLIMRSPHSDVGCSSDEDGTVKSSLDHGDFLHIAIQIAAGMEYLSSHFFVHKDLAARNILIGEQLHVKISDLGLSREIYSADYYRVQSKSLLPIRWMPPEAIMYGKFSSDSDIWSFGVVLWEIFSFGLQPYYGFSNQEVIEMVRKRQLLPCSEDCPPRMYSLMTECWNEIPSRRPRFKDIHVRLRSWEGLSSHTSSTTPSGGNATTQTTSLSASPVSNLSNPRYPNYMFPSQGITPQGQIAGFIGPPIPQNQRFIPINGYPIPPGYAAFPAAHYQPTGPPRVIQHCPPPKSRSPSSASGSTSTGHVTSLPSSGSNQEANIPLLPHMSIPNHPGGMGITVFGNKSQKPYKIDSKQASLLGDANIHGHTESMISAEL
T3 sequence (Q01974 34-403 limits assumed): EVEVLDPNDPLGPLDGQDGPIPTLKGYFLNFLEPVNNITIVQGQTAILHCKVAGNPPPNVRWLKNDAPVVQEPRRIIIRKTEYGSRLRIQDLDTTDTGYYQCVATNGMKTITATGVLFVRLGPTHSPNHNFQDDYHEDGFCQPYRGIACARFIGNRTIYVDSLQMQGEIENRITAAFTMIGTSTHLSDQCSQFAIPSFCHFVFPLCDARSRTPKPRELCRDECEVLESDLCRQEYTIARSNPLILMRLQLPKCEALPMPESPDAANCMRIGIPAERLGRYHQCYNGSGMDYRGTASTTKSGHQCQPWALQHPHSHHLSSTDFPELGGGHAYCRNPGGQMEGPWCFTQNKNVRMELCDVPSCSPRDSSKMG
T4 sequence (Q9Z139 30-406 limits assumed): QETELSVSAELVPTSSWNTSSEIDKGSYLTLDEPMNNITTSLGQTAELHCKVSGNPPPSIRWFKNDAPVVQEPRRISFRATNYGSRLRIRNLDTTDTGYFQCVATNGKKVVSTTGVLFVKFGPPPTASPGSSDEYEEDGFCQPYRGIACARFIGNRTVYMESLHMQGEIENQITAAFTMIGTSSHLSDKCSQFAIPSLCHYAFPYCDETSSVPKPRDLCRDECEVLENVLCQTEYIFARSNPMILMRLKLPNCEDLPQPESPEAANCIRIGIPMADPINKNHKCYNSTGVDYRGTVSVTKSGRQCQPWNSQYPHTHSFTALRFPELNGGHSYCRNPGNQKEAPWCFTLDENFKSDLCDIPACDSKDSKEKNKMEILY

B1: B62-H2L3 (antibody, human IgG1, kappa)
heavy: not shown
light: DIQMTQSPSSLSASVGDRVTITCVTSIDIDDDVNWYQQKPGKAPKLLISAGNTLRPGVPSRFSGSGSGTDFTFTISSLQPEDIATYYCLQSDNLPYTFGGGTKLEIKRTVAAPSVFIFPPSDEQLKSGTASVVCLLNNFYPREAKVQWKVDNALQSGNSQESVTEQDSKDSTYSLSSTLTLSKADYEKHKVYACEVTHQGLSSPVTKSFNRGEC
- EC50 [1]: 6.3 ng/mL

B2: B62-H1L1 (antibody, human IgG1, kappa, V domains shown)
VH: EVQLVESGGGLVQPGGSLRLSCAASGFTFSSYVMSWVRQTPGKRLELVATINSNGGNTYYPDSVKGRFTISRDNAKNTLYLQMSSLRAEDTAMYYCARDSLGLRRRDYAMDYWGQGTTVTVSS
VL: DIQLTQSPSSLSASVGDRVTIRCVTSIDIDDDVNWYQQKPGKAPKLLISAGNTLRPGVPSRFSSSGYGTDFTFTISSMQPEDIATYYCLQSDNLPYTFGGGTKLEIKR
- EC50 [1]: 7.1 ng/mL

B3: B62-H3L2 (antibody, human IgG1, kappa)
heavy: not shown
light: DIQLTQSPSSLSASVGDRVTIRCVTSIDIDDDVNWYQQKPGKAPKLLISAGNTLRPGVPSRFSGSGSGTDFTFTISSLQPEDIATYYCLQSDNLPYTFGGGTKLEIKRTVAAPSVFIFPPSDEQLKSGTASVVCLLNNFYPREAKVQWKVDNALQSGNSQESVTEQDSKDSTYSLSSTLTLSKADYEKHKVYACEVTHQGLSSPVTKSFNRGEC
- EC50 [2]: 6.59 ng/mL

B4: B62-H2L2 (antibody, human IgG1, kappa)
heavy: not shown
light: DIQLTQSPSSLSASVGDRVTIRCVTSIDIDDDVNWYQQKPGKAPKLLISAGNTLRPGVPSRFSGSGSGTDFTFTISSLQPEDIATYYCLQSDNLPYTFGGGTKLEIKRTVAAPSVFIFPPSDEQLKSGTASVVCLLNNFYPREAKVQWKVDNALQSGNSQESVTEQDSKDSTYSLSSTLTLSKADYEKHKVYACEVTHQGLSSPVTKSFNRGEC
- EC50 [1]: 6.27 ng/mL

B5: B62-H1L2 (antibody, human IgG1, kappa, V domains shown)
VH: EVQLVESGGGLVQPGGSLRLSCAASGFTFSSYVMSWVRQTPGKRLELVATINSNGGNTYYPDSVKGRFTISRDNAKNTLYLQMSSLRAEDTAMYYCARDSLGLRRRDYAMDYWGQGTTVTVSS
VL: DIQLTQSPSSLSASVGDRVTIRCVTSIDIDDDVNWYQQKPGKAPKLLISAGNTLRPGVPSRFSGSGSGTDFTFTISSLQPEDIATYYCLQSDNLPYTFGGGTKLEIKR
- EC50 [1]: 7.88 ng/mL

B6: B62-H2L4 (antibody, human IgG1, kappa, V domains shown)
VH: EVQLVESGGGLVQPGGSLRLSCAASGFTFSSYVMSWVRQAPGKGLELVATINSNGGNTYYPDSVKGRFTISRDNAKNTLYLQMGSLRAEDTAMYYCARDSLGLRRRDYAMDYWGQGTTVTVSS
VL: DIQMTQSPSSLSASVGDRVTITCQTSIDIDDDVNWYQQKPGKAPKLLISAGNTLETGVPSRFSGSGSGTDFTFTISSLQPEDIATYYCLQSDNLPYTFGGGTKLEIKR
- EC50 [2]: 8.48 ng/mL

B7: B62-H3L4 (antibody, human IgG1, kappa, V domains shown)
VH: EVQLVESGGGLVQPGGSLRLSCAASGFTFSSYVMSWVRQAPGKGLEYVATINSNGGNTYYADSVKGRFTISRDNSKNTLYLQMGSLRAEDTAMYYCARDSLGLRRRDYAMDYWGQGTTVTVSS
VL: DIQMTQSPSSLSASVGDRVTITCQTSIDIDDDVNWYQQKPGKAPKLLISAGNTLETGVPSRFSGSGSGTDFTFTISSLQPEDIATYYCLQSDNLPYTFGGGTKLEIKR
- EC50 [2]: 6.24 ng/mL

B8: B62 (chimeric antibody) (antibody, human IgG1, kappa, V domains shown)
VH: DVKLVESGGGLVQPGGSLKLSCAASGFTFSSYVMSWVRQTPDKRLELVATINSNGGNTYYPDSVKGRFTISRDNAKNTLYLQMSSLKSEDTAMYYCARDSLGLRRRDYAMDYWGQGTSVTVSS
VL: DIVLTQSPASLSMAIGEKVTIRCVTSIDIDDDVNWYQQKPGKPPKLLISAGNTLRPGVPSRFSSSGYGTDFVFTIENMLSEDVADYYCLQSDNLPYTFGGGTKLEIKR
notes: ExpiCHO expression
- Kd [3]: 0.984 nM
- koff [3]: 0.000373 s⁻¹
- kon [3]: 379000 M⁻¹ s⁻¹
- Kd [4]: 0.0639 nM
- koff [4]: 7.74e-05 s⁻¹
- kon [4]: 1.21e+06 M⁻¹ s⁻¹
- t 1/2 [4]: 2.49 h
- EC50 [2]: 5.46 ng/mL
- EC50 [1]: 5.58 ng/mL
- EC50 (read off the curve) [5]: ~70 ng/mL
- EC50 (read off the curve) [6]: ~6 ng/mL
- binding result [7]: no binding (tested: 1 µg/mL)
- EC50 (read off the curve) [8]: ~4 ng/mL
- EC50 [9]: 8.03 ng/mL

— patent publication US20250177546A1 (SANYOU BIOPHARMACEUTICALS, published 2025)
